What was measured:
[1] = tested on: pure islet preparations; assay: Pure islet preparations treated with BMP-7 (colony formation); assay type: cell-based, human; settings: n=3
[2] = tested on: hNEPT; assay: TLDA qRT-PCR gene expression in BMP-7-treated hNEPT; assay type: cell-based, human; settings: BMP-7-treated vs untreated control
Experimental: The expression of 43 genes (including epithelial, acinar, islet and mesenchymal cell markers) was studied in hNEPT preparations (n=8) treated with BMP-7 and untreated controls at the same time point. […] GCK, MAFA and NKX6.1, as well as islet development markers HNF1B and NEUROD1 were also elevated.
hNEPT culture: Human islets were isolated at the DRI's cGMP facility following methods already described54, and hNEPT samples (2-4 ml) were obtained as an isolation byproduct. The cells were washed and seeded on tissue culture-treated plates in FBS- and trypsin inhibitor-supplemented RPMI 1640 medium (Gibco-Life Technologies, Grand Island, N.Y.). After 48 h, floating cells were removed with fresh medium replacement. The following day, cultures were either treated with 100 ng/ml BMP-7 (ProSpec-Tany TechnoGene; Ness Ziona, Israel) or remained in the starting medium as controls. Cells were allowed to grow 4-5 days and then the serum-containing medium was replaced by serum-free Advanced RPMI 1640 (Gibco-Life Technologies, Grand Island, N.Y.). Four to five days later the cells were either subjected to static incubation to evaluate their ability to respond to changing glucose concentration or collected for further assessments (such as C-peptide content, immunohistochemistry or cellular composition) or transplantation.
Quantitative Real Time RT-PCR: Samples were washed in PBS and resuspended in RNA later (Life Technologies—Ambion, Grand Island, N.Y.). RNA was extracted with the mirVana kit (Life Technologies-Applied Biosystems, Grand Island, N.Y.). 2 ng/μl of RNA was used for cDNA synthesis using High-Capacity cDNA Kit (Life Technologies-Applied Biosystems, Grand Island, N.Y.). Quantitative RT-PCR was performed with TaqMan assays (Life technologies—Applied Biosystems, Grand Island, N.Y.) following manufacturer's instructions. RNA expression was calculated as Relative Quantification (RQ) by Applied Biosystems software using the formula RQ=2−ddCT (ddCT=dCT of the sample−dCT of the control). dCT is the number of cycles normalized by endogenous control. Individual reactions were performed with a 7500 Fast Real Time PCR system (Life Technologies). Some experiments were performed using custom-made Taqman® Low Density Microarray (TLDA) cards containing 43 target genes and 3 endogenous genes (ubiquitin C, 18S rRNA and beta actin) and ran in a 7900 Real time PCR cycler (Life Technologies). Cts >35 were considered undetermined.

[3] = reconstituted solution; cited from earlier work
[4] = tested on: SMAD1/5/8 phosphorylation; assay: SMAD1/5/8 phosphorylation by immunofluorescence in hNEPT; assay type: cell-based, human; settings: 2 h after the addition of BMP-7 to hNEPT
Description: In order to study the mechanism behind the effects of BMP-7 on hNEPT preparations, the potential receptors engaged by BMP-7 were studied. BMP-7 binds with high affinity to heteromeric complexes formed by BMPR2 (Bone Morphogenetic Receptor Type II) and the activin-like kinase (ALK) ALK3, ALK6 or ALK2 type I serine/threonine kinase receptors^25. […] These findings are consistent with numerous reports that identify ALK3 as the receptor that mediates BMP-7 function in several biological models of regeneration, including adult liver regrowth^23, differentiation of epidermal Langerhans cells^24 and kidney regeneration and fibrosis reversa1^22. The activation of the canonical BMP signaling pathway entails the phosphorylation of SMAD1/5/8 upon ALK3 engagement.
IF analysis and confocal microscopy: The present study was conducted on human pancreatic samples from cadaveric organ donors. In addition to our own cGMP facility, the Network for Pancreatic Organ Donors with Diabetes (nPOD, www.jdrfnpod.org)55 also provided tissue sections. For IF staining, 5 μm-thick frozen sections or cultured cells were fixed with 4% paraformaldehyde (PFA) for 20 min at room temperature, rinsed with HBSS, washed (3 x 5 min each) with lx Supersensitive Wash Buffer (Biogenex HK583-5K) and then incubated in permeabilization buffer PBSTr [0.2% Triton X-100 (Sigma-Aldrich) in PBS] for 30 min at room temperature. […]

B1: BMP-7: 35 kDa homodimeric protein of the TGF-β superfamily; FDA-approved agent; human mature chain SEQ ID NO:1/2 (protein, listed as Homo sapiens)
chain: IRSTGSKQRSQNRSKTPKNQEALRMANVAENSSSDQRQACKKHELYVSFRDLGWQDWIIAPEGYAAYYCEGECAFPLNSYMNATNHAIVQTLVHFINPETVPKPCCAPTQLNAISVLYFDDSSNVILKKYRNMVVRACGCH
modifications: homodimer; human mature chain of BMP-7 (NCBI Reference Sequence NM_001719.2) comprising peptide from 293-431
In the case of B1, the colony formation [1] is reported as “failed to give rise to colonies”, the “GCK, MAFA, NKX6.1, HNF1B and NEUROD1 expression” value [2] is reported as “elevated” and the “extra-insular genes KRT-19, CPA1 and PNLIP expression” value [2] is reported as “up-regulation”. For the same molecule, the “ZEB2 expression (up-regulated)” value ([2]; P<0.05) was 1.6 fold, the “E-cadherin (CDH1) expression (up-regulated)” value ([2]; p<0.01) was 6 fold and the “EMT marker ZEB1 expression (down-regulated)” value ([2]; p<0.01) was 0.4 fold. For the same molecule, the “PDX1 gene expression, average increase” value ([2]; same time point, n=8) was 29 fold, the “glucagon gene expression, average increase” value ([2]; same time point, n=8) was 92 fold and the “insulin gene expression, average increase” value ([2]; same time point, n=8) was 40 fold. The “pancreatic polypeptide (PPY) gene expression, average increase” value ([2]; same time point, n=8) was 14 fold, the “somatostatin (SST) gene expression, average increase” value ([2]; same time point, n=8) was 28 fold and the “time reconstituted BMP-7 is active” value [3] was 2 to 7 days. For the same molecule, the “SMAD1/5/8 phosphorylation in ALK3-expressing cells” value [4] was “presented SMAD1/5/8 phosphorylation”.

From patent publication US11466255B2, “Methods and compositions for converting non-endocrine pancreatic tissue into insulin-producing cells” (UNIVERSITY OF MIAMI, priority 2015, dated 2022)
